From patent US20240199755A1, “ANTAGONISTS AND AGONISTS OF THE TRANSFERRIN RECEPTOR-2 FOR USE IN THE TREATMENT OF DISEASES OF THE BONE” (Kymab Limited, priority 2018, published 2024)
“Also recorded” adds a separate entry of the source.

Key:
[1] = Iron, blood and bone parameters of wild type mice treated systemically with Tfr2-ECD; assay type: in vivo
Experimental: (§1) For systemic Tfr2-ECD treatment, WT mice were treated every other day with Tfr2-ECD intraperitoneally for two weeks. Mice received 250 μg Tfr2-ECD (10 mg/kg BW) per injection for the first 10 days after BMP-2/matrigel injection into the muscle and 125 μg per injection (5 mg/kg BW) for the remaining time. This experiment was performed once with 8-10 mice per group. Drop-weight HO: This experiment was performed according to Liu et al. with minor modifications^65. Female 10-12-week-old WT mice were anesthetized and placed on a ridge of a plastic container over which the right leg was bent so the femur was lying horizontally. Mice received an injection of 1 μg BMP-2 mixed in 50 μl matrigel. Afterwards, a stainless-steel ball of 16 g (16 mm diameter) was dropped from a distance of 80 cm height onto the quadriceps muscle. Mice either received a single dose of 1 μg Tfr2-ECD, which was co-injected with the BMP-2/matrigel mixture, or palovarotene (Hycultec), which was administered daily by oral gavage. Palovarotene was dissolved in DMSO and diluted 1:4 with corn oil. Mice received palovarotene at a dose of 100 μg/mouse for the first five days and 50 μg/mouse for the remainder of the experiment (days 621). One group of mice received ibuprofen via the drinking water at a dose of […] which was changed every other day^66. Mice received methamizole (200 mg/kg) to reduce pain for the entire duration of the experiment. This experiment was performed twice with 6 mice per group.
Bone microarchitecture was analyzed using the vivaCT40 (Scanco Medical, Switzerland). The femur and the fourth lumbar vertebra were imaged at a resolution of 10.5 μm with X-ray energy of 70 kVp, […], and an integration time of 200 ms. The trabecular bone in the femur was assessed in the metaphysis 20 slices below the growth plate using 150 slices. In the vertebral bone, 150 slices were measured between both growth plates. The cortical bone was determined in the femoral midshaft (150 slices). Pre-defined scripts from Scanco were used for the evaluation.
The iron concentration in the liver was determined using 20 mg of dried liver tissue as previously published^8. The iron concentration in the bone was determined using atomic absorption spectroscopy (PerkinElmer Analyst 800) of dried bone tissue (bone marrow-flushed femur and tibia) as previously published^69.
The bone turnover markers C-terminal telopeptide (CTX) and pro-collagen type I N-terminal peptide (P1NP) were measured in the serum using ELISAs (IDS, Germany). Serum dickkopf-1 and BMP-2 were measured using ELISAs from R&D Systems (Germany). Mouse sclerostin was measured with an ELISA from Alpco (USA). Serum ferritin and iron were measured using routine methods for clinical analyses on a Roche Modular PPE analyzer. The transferrin saturation was determined using a total iron binding capacity kit from Randox.

[2] = tested on: trauma-induced heterotopic ossification; assay: Trauma-potentiated (drop-weight) heterotopic ossification model; assay type: in vivo; conditions: WT mice; after three weeks; Tfr2-ECD single dose, palovarotene or ibuprofen daily
Experimental: as §1, with “Mice received methamizole (200 mg/kg) to reduce pain for the entire duration of the experiment. This experiment was performed twice with 6 mice per group.” left out

[3] = biological target: T1, BMP-2 (Homo sapiens, UniProt P12643); assay: BMP-2 competitive ELISA; assay type: binding; conditions: 1.5 ng/ml BMP-2 with increasing concentrations of protein
T1 sequence (P12643 283-396): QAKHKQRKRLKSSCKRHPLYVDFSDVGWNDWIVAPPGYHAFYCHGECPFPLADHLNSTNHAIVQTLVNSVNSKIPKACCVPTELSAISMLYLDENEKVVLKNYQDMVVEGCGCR
Experimental: In order to carry out the BMP-2-competitive ELISA, the Duo Set BMP-2 ELISA kit by R&D Systems is used.
The Duo Set BMP-2 ELISA kit from R&D Systems was used. […] After 1 h incubation at RT and extensive washing, the detection antibody was added according to the manufacturer's protocol and the amount of BMP-2 was quantified. This experiment was performed at least three independent times.

[4] = wild type mice, systemic Tfr2-ECD, n = 8, means ± SD

BMP-2 binding: signal of the BMP-2 detection antibody [3]: verified
B1: Tfr2-ECD: Recombinant full-length extracellular domain (aa 103-798) of murine Tfr2, His-tagged, expressed in Sf9 insect cells (protein, listed as Mus musculus)
chain: RGSCQACGDSVLVVDEDVNPEDSGRTTLYWSDLQAMFLRFLGEGRMEDTIRLTSLRERVAGSARMATLVQDILDKLSRQKLDHVWTDTHYVGLQFPDPAHANTLHWVDADGSVQEQLPLEDPEVYCPYSATGNATGKLVYAHYGRSEDLQDLKAKGVELAGSLLLVRVGITSFAQKVAVAQDFGAQGVLIYPDPSDFSQDPHKPGLSSHQAVYGHVHLGTGDPYTPGFPSFNQTQFPPVESSGLPSIPAQPISADIADQLLRKLTGPVAPQEWKGHLSGSPYRLGPGPDLRLVVNNHRVSTPISNIFACIEGFAEPDHYVVIGAQRDAWGPGAAKSAVGTAILLELVRTFSSMVSNGFRPRRSLLFISWDGGDFGSVGATEWLEGYLSVLHLKAVVYVSLDNSVLGDGKFHAKTSPLLVSLIENILKQVDSPNHSGQTLYEQVALTHPSWDAEVIQPLPMDSSAYSFTAFAGVPAVEFSFMEDDRVYPFLHTKEDTYENLHKMLRGRLPAVVQAVAQLAGQLLIRLSHDHLLPLDFGRYGDVVLRHIGNLNEFSGDLKERGLTLQWVYSARGDYIRAAEKLRKEIYSSERNDERLMRMYNVRIMRVEFYFLSQYVSPADSPFRHIFLGQGDHTLGALVDHLRMLRADGSGAASSRLTAGLGFQESRFRRQLALLTWTLQGAANALSGDVWNIDNNF
modifications: His tag
notes: Recombinant full-length extracellular domain (aa 103-798) of murine Tfr2, His-tagged, expressed in Sf9 insect cells
Adverse effects on blood counts, iron parameters, bone homeostasis or gross morphology of internal organs ([1]; systemic Tfr2-ECD treatment, 2 week treatment period): No adverse effects; also recorded: did not show adverse effects
Differential counts, Lymphocytes [1, 4]: 90.1 ± 4.35%
Differential counts, Monocytes [1, 4]: 2.17 ± 2.55%
Differential counts, Neutrophils [1, 4]: 7.33 ± 2.82%
HCT [1, 4]: 0.51 ± 0.02
Heart iron [1, 4]: 207.8 ± 54.1 μg/g dry tissue
Hemoglobin [1, 4]: 9.77 ± 0.41 mmol/L
Kidney iron [1, 4]: 112.6 ± 15.0 μg/g dry tissue
Liver iron [1, 4]: 578.3 ± 273^ μg/g dry tissue
Plasma iron [1, 4]: 30.1 ± 3.3 µmol/L
Platelets [1, 4]: 385 ± 69.5 10^9/L
RBC [1, 4]: 10.1 ± 0.40 10^12/L
Reticulocytes [1, 4]: 197 ± 24.2 10^9/L
Spleen iron [1, 4]: 620.2 ± 113^ μg/g dry tissue
WBC [1, 4]: 11.0 ± 3.09 10^9/L
μCT BV/TV Femur [1, 4]: 10.7 ± 3.09%
μCT BV/TV Vertebrae [1, 4]: 24.1 ± 3.36%
New bone formation in the muscle (trauma-induced HO, μCT) [2]: inhibited new bone formation in the muscle comparable to palovarotene
BMP-2 binding: signal of the BMP-2 detection antibody ([3]; listed as protein according to the invention): signal of the BMP-2 detection antibody reduced
